± gives the standard deviation of the averaged measurements.
Assay: total protein half-life in vivo (active degradation + dilution); higher = more stable protein
[1] = E. coli NCM3722 delta-clpP, growth: N-lim chemostat, doubling time 6 h
[2] = E. coli NCM3722 delta-hslV, growth: N-lim chemostat, doubling time 6 h
[3] = E. coli NCM3722 delta-lon, growth: N-lim chemostat, doubling time 6 h
[4] = E. coli NCM3722 delta-smpB, growth: N-lim chemostat, doubling time 6 h
[5] = wild type E. coli NCM3722, growth: C-lim chemostat, doubling time 6 h
[6] = wild type E. coli NCM3722, growth: C-lim chemostat, doubling time 12 h
[7] = wild type E. coli NCM3722, growth: N-lim chemostat, doubling time 6 h
[8] = wild type E. coli NCM3722, growth: N-lim chemostat, doubling time 12 h
[9] = wild type E. coli NCM3722, growth: P-lim chemostat, doubling time 6 h
[10] = wild type E. coli NCM3722, growth: P-lim chemostat, doubling time 12 h
[11] = E. coli NCM3722 delta-clpP delta-lon delta-hslV, growth: N-lim chemostat, doubling time 6 h
[12] = wild type E. coli NCM3722, growth: C-lim chemostat, doubling time 3 h

## MEFFKKTALAALVMGFSGAALALPNITILATGGTIAGGGDSATKSNYTVGKVGVENLVNAVPQLKDIANVKGEQVVNIGSQDMNDNVWLTLAKKINTDCDKTDGFVITHGTDTMEETAYFLDLTVKCDKPVVMVGAMRPSTSMSADGPFNLYNAVVTAADKASANRGVLVVMNDTVLDGRDVTKTNTTDVATFKSVNYGPLGYIHNGKIDYQRTPARKHTSDTPFDVSKLNELPKVGIVYNYANASDLPAKALVDAGYDGIVSAGVGNGNLYKSVFDTLATAAKTGTAVVRSSRVPTGATTQDAEVDDAKYGFVASGTLNPQKARVLLQLALTQTKDPQQIQQIFNQY
[1]
  total protein half-life in vivo: 5.6 ± 1.2 h
[2]
  total protein half-life in vivo: 6.41 ± 0.082 h
[3]
  total protein half-life in vivo: 5.53 ± 0.3 h
[4]
  total protein half-life in vivo: 6.23 ± 0.81 h
[5]
  total protein half-life in vivo: 5.38 ± 0.38 h
[6]
  total protein half-life in vivo: > 16 h
[7]
  total protein half-life in vivo: 6.03 ± 0.47 h
[8]
  total protein half-life in vivo: 12.3 ± 0.7 h
[9]
  total protein half-life in vivo: 6.54 ± 0.46 h
[10]
  total protein half-life in vivo: 13 ± 0.46 h

## MEHISTTTLIIILIIMVVISAYFSGSETGMMTLNRYRLRHMAKQGNRSAKRVEKLLRKPDRLISLVLIGNNLVNILASALGTIVGMRLYGDAGVAIATGVLTFVVLVFAEVLPKTIAALYPEKVAYPSSFLLAPLQILMMPLVWLLNAITRMLMRMMGIKTDIVVSGSLSKEELRTIVHESRSQISRRNQDMLLSVLDLEKMTVDDIMVPRSEIIGIDINDDWKSILRQLSHSPHGRIVLYRDSLDDAISMLRVREAWRLMSEKKEFTKETMLRAADEIYFVPEGTPLSTQLVKFQRNKKKVGLVVNEYGDIQGLVTVEDILEEIVGDFTTSMSPTLAEEVTPQNDGSVIIDGTANVREINKAFNWHLPEDDARTVNGVILEALEEIPVAGTRVRIGEYDIDILDVQDNMIKQVKVFPVKPLRESVAE
[11]
  total protein half-life in vivo: 6.45 ± 0.94 h
[1]
  total protein half-life in vivo: 6.26 ± 0.14 h
[2]
  total protein half-life in vivo: 6.04 ± 0.47 h
[4]
  total protein half-life in vivo: 5.75 ± 0.47 h
[12]
  total protein half-life in vivo: 3.02 ± 0.34 h
[5]
  total protein half-life in vivo: 6.47 ± 1.1 h
[6]
  total protein half-life in vivo: 9.51 ± 2.4 h
[7]
  total protein half-life in vivo: 6.56 ± 0.41 h
[8]
  total protein half-life in vivo: 11.6 ± 1 h
[9]
  total protein half-life in vivo: 6 ± 0.074 h
[10]
  total protein half-life in vivo: 10.9 ± 1 h

## MEISFTRVALLAAALFFVGCDQKPQPAKTHATEVTVLEGKTMGTFWRASIPGIDAKRSAELKEKIQTQLDADDQLLSTYKKDSALMRFNDSQSLSPWPVSEAMADIVTTSLRIGAKTDGAMDITVGPLVNLWGFGPEQQPVQIPSQEQIDAMKAKTGLQHLTVINQSHQQYLQKDLPDLYVDLSTVGEGYAADHLARLMEQEGISRYLVSVGGALNSRGMNGEGLPWRVAIQKPTDKENAVQAVVDINGHGISTSGSYRNYYELDGKRLSHVIDPQTGRPIEHNLVSVTVIAPTALEADAWDTGLMVLGPEKAKEVVRREGLAVYMITKEGDSFKTWMSPQFKSFLVSEKN [P0AB85]
[11]
  total protein half-life in vivo: 6.34 ± 0.12 h
[1]
  total protein half-life in vivo: 6.53 ± 0.012 h
[2]
  total protein half-life in vivo: 5.8 ± 0.66 h
[3]
  total protein half-life in vivo: 6.9 ± 0.33 h
[4]
  total protein half-life in vivo: 5.97 ± 0.26 h
[12]
  total protein half-life in vivo: 2.9 ± 0.21 h
[5]
  total protein half-life in vivo: 6.95 ± 0.84 h
[6]
  total protein half-life in vivo: 11.9 ± 0.74 h
[7]
  total protein half-life in vivo: 6.29 ± 0.19 h
[8]
  total protein half-life in vivo: 12.3 ± 1.8 h
[9]
  total protein half-life in vivo: 6.3 ± 1.1 h
[10]
  total protein half-life in vivo: 13.4 ± 0.18 h

## MEKDYLRISSTVLVSLLFGLALVLVNSWFNQPGVEEVVPRSTYLMVMIALFFIDTVAFIFMQLYFIYDRRQFSNCVLSLAFLSCLIYFVITVIIIQQIIEERLTSSVVQNDIAIYYLFRQMSLCILIFLALVNKVSENTKQRNLFSKKMTLCISLFFVFGGPIVAHILSSHYESYNLHIAELTNENGQVVWKASYVTIMIFMWLTLLSVNLYFNGLRYDIWNGVTVIAFCAVLYNISLLFMSRYSVSTWYISRTIEVVSKLTVMVIFMCHIFSALRVTKNIAHRDPLTNIFNRNYFFNELTVQSASAQKTPYCVMIMDIDHFKKVNDTWGHPVGDQVIKTVVNIIGKSIRPDDLLARVGGEEFGVLLTDIDTERAKALAERIRENVERLTGDNPEYAIPQKVTISIGAVVTQENALNPNEIYRLADNALYEAKETGRNKVVVRDVVNFCESP
[12]
  total protein half-life in vivo: 2.9 h

## MEKEQLIEIANTIMPFGKYKGRRLIDLPEEYLLWFARKDEFPAGKLGELMQITLLIKTEGLTQLVQPLKRPL [P0AD40]
[11]
  total protein half-life in vivo: 6.16 ± 0.29 h
[5]
  total protein half-life in vivo: 5.09 h
[6]
  total protein half-life in vivo: 6.67 h
[9]
  total protein half-life in vivo: 3.3 h
[10]
  total protein half-life in vivo: 8.7 ± 2.7 h

## MEKGTVKWFNNAKGFGFICPEGGGEDIFAHYSTIQMDGYRTLKAGQSVQFDVHQGPKGNHASVIVPVEVEAAVA [P0A968]
[11]
  total protein half-life in vivo: 2.08 h
[1]
  total protein half-life in vivo: 1.11 ± 0.089 h
[2]
  total protein half-life in vivo: 0.144 h
[12]
  total protein half-life in vivo: 0.333 ± 0.022 h
[5]
  total protein half-life in vivo: 0.386 h
[6]
  total protein half-life in vivo: 0.224 h

## MEKKHIYLFCSAGMSTSLLVSKMRAQAEKYEVPVIIEAFPETLAGEKGQNADVVLLGPQIAYMLPEIQRLLPNKPVEVIDSLLYGKVDGLGVLKAAVAAIKKAAAN
[11]
  total protein half-life in vivo: 4.43 ± 0.066 h
[1]
  total protein half-life in vivo: 3.28 ± 0.13 h
[2]
  total protein half-life in vivo: 2.92 ± 0.14 h
[3]
  total protein half-life in vivo: 4.05 ± 0.47 h
[4]
  total protein half-life in vivo: 3.16 ± 0.091 h
[12]
  total protein half-life in vivo: 2.72 ± 0.065 h
[5]
  total protein half-life in vivo: 3.64 ± 0.58 h
[6]
  total protein half-life in vivo: 6 ± 0.41 h
[7]
  total protein half-life in vivo: 2.82 ± 0.2 h
[8]
  total protein half-life in vivo: 4.37 ± 1 h
[9]
  total protein half-life in vivo: 4.042 ± 0.031 h
[10]
  total protein half-life in vivo: 7.9 ± 0.83 h

From the supplement of paper PMC11246515
